Data as given in patent US20140072613A1 (published 2014).

T1: ARK5(h) (human, UniProt O60285 1-661, limits assumed)
T1 sequence (looked up): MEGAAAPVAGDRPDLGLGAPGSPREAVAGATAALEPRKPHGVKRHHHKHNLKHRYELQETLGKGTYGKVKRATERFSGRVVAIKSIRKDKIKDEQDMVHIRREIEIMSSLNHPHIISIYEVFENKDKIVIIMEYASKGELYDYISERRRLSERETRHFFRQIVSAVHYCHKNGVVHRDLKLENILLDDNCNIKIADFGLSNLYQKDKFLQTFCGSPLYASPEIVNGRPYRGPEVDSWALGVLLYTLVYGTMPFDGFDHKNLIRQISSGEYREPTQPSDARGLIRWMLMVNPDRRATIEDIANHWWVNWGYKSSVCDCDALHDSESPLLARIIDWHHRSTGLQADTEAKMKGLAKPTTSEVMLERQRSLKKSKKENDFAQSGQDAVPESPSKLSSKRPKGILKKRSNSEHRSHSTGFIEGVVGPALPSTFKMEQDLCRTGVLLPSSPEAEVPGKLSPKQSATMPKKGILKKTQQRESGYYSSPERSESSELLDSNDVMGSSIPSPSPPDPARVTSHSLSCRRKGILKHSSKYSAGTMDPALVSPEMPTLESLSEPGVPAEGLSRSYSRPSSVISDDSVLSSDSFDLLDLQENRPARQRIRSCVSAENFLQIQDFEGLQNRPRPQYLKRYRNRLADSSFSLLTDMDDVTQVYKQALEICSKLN

T2: DMPK(h) (human, UniProt Q09013 1-629, limits assumed)
T2 sequence (looked up): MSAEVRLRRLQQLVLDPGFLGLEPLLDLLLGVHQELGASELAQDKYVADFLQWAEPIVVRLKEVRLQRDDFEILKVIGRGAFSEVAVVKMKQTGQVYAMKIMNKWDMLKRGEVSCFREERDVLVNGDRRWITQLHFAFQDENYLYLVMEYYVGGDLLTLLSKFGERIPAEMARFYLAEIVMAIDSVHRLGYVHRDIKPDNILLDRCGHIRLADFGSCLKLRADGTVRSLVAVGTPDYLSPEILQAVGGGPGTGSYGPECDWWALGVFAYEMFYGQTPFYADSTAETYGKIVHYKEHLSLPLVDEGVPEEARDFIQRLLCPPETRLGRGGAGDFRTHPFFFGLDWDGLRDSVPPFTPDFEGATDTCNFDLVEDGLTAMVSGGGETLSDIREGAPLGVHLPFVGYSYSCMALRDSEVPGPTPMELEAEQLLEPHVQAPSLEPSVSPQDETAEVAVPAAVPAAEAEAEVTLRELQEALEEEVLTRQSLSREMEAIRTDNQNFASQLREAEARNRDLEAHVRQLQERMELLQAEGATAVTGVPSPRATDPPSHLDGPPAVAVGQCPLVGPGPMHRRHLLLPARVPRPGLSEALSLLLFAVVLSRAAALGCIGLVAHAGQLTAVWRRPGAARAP

T3: DYRK2(h) (human, UniProt Q92630 1-601, limits assumed)
T3 sequence (looked up): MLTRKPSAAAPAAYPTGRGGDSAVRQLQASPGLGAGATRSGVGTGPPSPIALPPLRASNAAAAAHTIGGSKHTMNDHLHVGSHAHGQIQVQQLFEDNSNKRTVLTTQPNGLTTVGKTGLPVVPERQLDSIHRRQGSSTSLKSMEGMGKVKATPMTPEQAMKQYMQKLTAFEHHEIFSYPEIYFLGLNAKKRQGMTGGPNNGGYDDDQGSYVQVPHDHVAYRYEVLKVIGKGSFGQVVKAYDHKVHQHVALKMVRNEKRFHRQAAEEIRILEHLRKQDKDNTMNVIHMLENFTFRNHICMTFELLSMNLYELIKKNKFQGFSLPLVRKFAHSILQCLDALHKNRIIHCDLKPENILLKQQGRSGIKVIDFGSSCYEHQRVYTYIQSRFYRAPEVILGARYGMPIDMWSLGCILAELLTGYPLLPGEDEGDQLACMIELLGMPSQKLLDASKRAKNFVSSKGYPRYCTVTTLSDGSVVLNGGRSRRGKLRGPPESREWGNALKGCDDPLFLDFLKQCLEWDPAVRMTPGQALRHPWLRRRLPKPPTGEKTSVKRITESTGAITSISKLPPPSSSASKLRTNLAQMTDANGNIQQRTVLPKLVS

B1: MMI-0300 (peptide)
peptide: FAKLAARLYRKALARQLGVAA
B2: MMI-0400 (peptide)
peptide: KAFAKLAARLYRKALARQLGVAA

Assays:
Experiment in all cases: cell-based or functional assay
6SK3β(h) = 6SK3β(h) (human, UniProt P49841 1-420)
JNK3(h) = JNK3(h) (human, UniProt P53779 1-464, limits assumed)
Lyn(h) = Lyn(h) (human, UniProt P07948 1-512)
Met(M1268T)(h) = Met(M1268T)(h) (human, UniProt P08581-2 974-1408, limits assumed)
MSK1(h) = MSK1(h) (human, UniProt O75582 1-802)
MSSK1(h) = MSSK1(h) (human, UniProt Q9UPE1 1-567, limits assumed)
PAK2(h) = PAK2(h) (human, UniProt Q13177 1-524)
ARK5(h) = biological target: T1, ARK5(h)
PKBγ(h) = PKBγ(h) (human, UniProt Q9Y243 1-479, limits assumed)
PKCθ(h) = PKCθ(h) (human, UniProt Q04759 1-706)
Rsk2(h) = Rsk2(h) (human, UniProt P51812 1-740)
SRPK1(h) = SRPK1(h) (human, UniProt Q96SB4 1-655)
ZIPK(h) = ZIPK(h) (human, UniProt O43293 1-454, limits assumed)
CDK6/cyclinD3(h) = CDK6/cyclinD3(h) (human, UniProt Q00534 1-326; P30281 1-292)
CLK2(h) = CLK2(h) (human, UniProt P49760 1-499, limits assumed)
DMPK(h) = biological target: T2, DMPK(h)
DYRK2(h) = biological target: T3, DYRK2(h)

Sequence of PKBγ(h) (Q9Y243 whole entry): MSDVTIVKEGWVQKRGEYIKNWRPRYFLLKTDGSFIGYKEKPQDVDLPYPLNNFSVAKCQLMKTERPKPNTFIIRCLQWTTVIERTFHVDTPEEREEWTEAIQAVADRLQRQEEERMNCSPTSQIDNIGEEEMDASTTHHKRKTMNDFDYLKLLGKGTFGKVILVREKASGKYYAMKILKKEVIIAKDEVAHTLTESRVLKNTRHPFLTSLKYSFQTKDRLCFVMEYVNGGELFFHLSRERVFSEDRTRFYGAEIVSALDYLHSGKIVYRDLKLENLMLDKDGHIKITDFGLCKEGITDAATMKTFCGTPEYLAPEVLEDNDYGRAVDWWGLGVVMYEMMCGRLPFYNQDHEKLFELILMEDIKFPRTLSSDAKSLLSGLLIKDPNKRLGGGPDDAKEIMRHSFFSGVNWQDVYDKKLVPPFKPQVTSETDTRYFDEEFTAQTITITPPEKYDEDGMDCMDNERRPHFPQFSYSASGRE
Sequence of CDK6/cyclinD3(h) (Q00534 whole entry, chain 1 of 2): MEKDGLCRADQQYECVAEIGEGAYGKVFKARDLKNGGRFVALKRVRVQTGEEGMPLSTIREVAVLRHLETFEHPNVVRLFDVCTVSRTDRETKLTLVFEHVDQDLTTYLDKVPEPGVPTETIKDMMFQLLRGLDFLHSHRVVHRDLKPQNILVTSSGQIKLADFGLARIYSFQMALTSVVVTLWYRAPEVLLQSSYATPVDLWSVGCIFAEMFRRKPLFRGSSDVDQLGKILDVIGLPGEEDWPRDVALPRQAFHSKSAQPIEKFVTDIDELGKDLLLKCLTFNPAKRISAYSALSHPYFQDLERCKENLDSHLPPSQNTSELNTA
Sequence of CDK6/cyclinD3(h) (P30281 whole entry, chain 2 of 2): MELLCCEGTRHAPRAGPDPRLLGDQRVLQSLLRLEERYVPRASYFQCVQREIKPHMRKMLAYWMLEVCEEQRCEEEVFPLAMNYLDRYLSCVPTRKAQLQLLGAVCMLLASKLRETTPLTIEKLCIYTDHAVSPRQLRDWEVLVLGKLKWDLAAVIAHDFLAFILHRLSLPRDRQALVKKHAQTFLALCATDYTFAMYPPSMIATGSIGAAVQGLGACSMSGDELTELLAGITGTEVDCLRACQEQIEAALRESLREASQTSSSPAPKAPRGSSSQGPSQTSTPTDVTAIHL
Sequence of SRPK1(h) (Q96SB4 whole entry): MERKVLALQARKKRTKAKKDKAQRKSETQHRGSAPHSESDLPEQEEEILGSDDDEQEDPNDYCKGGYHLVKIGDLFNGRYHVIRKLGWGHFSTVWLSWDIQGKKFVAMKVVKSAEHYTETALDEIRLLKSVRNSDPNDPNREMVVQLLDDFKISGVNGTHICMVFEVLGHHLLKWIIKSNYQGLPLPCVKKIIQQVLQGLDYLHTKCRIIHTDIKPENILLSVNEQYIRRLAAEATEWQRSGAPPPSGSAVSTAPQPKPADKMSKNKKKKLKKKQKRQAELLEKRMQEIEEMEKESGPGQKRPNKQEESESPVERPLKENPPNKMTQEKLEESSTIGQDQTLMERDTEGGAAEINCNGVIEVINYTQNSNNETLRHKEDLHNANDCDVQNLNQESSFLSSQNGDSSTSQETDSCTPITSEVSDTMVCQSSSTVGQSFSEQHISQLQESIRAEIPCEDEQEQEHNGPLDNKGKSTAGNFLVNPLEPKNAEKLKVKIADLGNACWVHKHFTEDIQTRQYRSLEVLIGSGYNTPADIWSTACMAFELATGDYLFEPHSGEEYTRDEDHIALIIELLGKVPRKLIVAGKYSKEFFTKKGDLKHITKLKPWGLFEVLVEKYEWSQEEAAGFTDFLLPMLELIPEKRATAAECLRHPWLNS
Sequence of MSK1(h) (O75582 whole entry): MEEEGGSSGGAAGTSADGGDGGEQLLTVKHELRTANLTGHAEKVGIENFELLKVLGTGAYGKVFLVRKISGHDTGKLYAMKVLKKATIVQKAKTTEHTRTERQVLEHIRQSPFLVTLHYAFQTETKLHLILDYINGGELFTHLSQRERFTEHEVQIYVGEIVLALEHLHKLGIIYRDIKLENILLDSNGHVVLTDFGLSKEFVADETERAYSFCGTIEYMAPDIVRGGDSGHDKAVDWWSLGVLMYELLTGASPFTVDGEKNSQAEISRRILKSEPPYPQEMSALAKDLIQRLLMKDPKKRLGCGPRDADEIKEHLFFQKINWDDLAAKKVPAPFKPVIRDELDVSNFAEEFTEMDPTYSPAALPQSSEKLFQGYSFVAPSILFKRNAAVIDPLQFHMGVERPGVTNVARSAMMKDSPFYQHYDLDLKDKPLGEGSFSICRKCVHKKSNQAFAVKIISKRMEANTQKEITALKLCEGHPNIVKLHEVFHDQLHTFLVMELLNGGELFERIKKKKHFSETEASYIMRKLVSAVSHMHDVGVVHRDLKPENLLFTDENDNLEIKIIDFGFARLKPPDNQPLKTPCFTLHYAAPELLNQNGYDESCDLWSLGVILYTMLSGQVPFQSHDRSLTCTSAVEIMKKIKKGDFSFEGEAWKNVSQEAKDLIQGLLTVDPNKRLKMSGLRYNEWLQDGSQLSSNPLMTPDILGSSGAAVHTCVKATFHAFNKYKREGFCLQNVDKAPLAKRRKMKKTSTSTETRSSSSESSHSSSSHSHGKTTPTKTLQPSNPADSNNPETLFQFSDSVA
Sequence of JNK3(h) (P53779 whole entry): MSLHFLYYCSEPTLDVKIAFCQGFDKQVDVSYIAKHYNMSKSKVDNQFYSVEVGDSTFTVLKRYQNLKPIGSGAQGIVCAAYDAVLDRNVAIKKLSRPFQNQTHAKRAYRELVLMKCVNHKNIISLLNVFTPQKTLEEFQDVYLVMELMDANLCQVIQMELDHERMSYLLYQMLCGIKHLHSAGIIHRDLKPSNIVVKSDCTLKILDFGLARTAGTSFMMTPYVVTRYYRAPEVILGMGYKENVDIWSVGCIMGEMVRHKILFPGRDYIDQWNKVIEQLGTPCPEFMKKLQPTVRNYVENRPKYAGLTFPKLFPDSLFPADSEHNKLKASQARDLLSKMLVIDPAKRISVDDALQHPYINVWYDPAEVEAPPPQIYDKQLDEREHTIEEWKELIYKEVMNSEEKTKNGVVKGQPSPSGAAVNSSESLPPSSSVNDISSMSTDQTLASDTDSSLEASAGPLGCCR
Sequence of ZIPK(h) (O43293 whole entry): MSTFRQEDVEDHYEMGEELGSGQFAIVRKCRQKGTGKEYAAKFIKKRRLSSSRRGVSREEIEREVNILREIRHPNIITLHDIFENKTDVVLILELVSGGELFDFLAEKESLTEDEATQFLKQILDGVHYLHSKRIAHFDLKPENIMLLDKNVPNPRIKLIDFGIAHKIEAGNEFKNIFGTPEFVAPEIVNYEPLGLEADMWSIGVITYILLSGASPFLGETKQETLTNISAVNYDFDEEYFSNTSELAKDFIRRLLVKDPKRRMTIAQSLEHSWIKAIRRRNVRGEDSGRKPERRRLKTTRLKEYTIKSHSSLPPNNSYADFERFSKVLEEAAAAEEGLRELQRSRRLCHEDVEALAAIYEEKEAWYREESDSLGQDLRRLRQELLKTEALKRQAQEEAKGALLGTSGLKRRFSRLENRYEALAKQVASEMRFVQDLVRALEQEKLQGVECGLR
Sequence of PKCθ(h) (Q04759 whole entry): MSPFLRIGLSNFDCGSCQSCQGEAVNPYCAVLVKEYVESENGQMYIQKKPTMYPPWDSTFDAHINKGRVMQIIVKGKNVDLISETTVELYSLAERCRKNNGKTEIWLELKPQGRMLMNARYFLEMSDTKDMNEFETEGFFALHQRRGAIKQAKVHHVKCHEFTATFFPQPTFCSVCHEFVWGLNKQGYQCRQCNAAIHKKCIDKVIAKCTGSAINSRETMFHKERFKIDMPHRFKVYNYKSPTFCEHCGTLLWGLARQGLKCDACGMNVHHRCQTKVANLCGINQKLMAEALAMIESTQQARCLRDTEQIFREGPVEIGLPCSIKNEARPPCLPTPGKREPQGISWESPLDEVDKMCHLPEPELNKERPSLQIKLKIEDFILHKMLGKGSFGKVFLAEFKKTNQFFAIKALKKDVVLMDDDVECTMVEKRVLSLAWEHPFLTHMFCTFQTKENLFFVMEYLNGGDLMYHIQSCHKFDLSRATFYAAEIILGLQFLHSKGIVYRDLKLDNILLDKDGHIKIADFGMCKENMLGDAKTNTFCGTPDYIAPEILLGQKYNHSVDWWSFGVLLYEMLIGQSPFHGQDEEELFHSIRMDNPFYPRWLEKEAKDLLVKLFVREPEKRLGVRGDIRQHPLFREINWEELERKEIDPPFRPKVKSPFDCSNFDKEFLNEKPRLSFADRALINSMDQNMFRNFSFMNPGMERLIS
Sequence of 6SK3β(h) (P49841 whole entry): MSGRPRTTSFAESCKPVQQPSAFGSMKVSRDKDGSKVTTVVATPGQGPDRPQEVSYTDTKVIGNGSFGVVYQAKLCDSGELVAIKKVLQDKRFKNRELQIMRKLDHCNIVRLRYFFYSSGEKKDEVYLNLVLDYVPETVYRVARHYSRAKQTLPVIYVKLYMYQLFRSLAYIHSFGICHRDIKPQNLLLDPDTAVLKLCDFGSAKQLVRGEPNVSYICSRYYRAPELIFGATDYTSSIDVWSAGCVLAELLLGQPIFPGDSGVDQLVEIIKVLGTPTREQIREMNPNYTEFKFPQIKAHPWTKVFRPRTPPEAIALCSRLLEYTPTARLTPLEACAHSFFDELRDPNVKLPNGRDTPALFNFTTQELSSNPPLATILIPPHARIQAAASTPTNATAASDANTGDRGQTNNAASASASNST

Binder	% activity, 100 µM (6SK3β(h))	% activity, 100 µM (JNK3(h))	% activity, 100 µM (Lyn(h))	% activity, 100 µM (Met(M1268T)(h))	% activity, 100 µM (MSK1(h))	% activity, 100 µM (MSSK1(h))	% activity, 100 µM (PAK2(h))	% activity, 100 µM (ARK5(h))	% activity, 100 µM (PKBγ(h))	% activity, 100 µM (PKCθ(h))	% activity, 100 µM (Rsk2(h))	% activity, 100 µM (SRPK1(h))	% activity, 100 µM (ZIPK(h))	% activity, 100 µM (CDK6/cyclinD3(h))	% activity, 100 µM (CLK2(h))	% activity, 100 µM (DMPK(h))	% activity, 100 µM (DYRK2(h))
B1	205%	89%	69%	255%	32%	77%	65%	78%	20%	88%	51%	90%	28%	86%	103%	59%	155%
B2	202%	70%	3%	265%	28%	75%	59%	69%	41%	76%	38%	96%	13%	85%	116%	54%	195%
